{
  "source": "patent US9962427B2",
  "about": "“Treatment of right ventricular dysfunction due to pressure overload” (OTTAWA HOSPITAL RESEARCH INSTITUTE, priority 2016, dated 2018)",
  "molecules": {"B1": {"name": "hCT1: Recombinant human CT1 protein; 201 amino acid sequence, GenBank Accession Nos AAD12173 and AAA85229 (human) (protein, UniProt Q16619 1-201, looked up)", "Cardiotrophin-1": "MSRREGSLEDPQTDSSVSLLPHLEAKIRQTHSLAHLLTKYAEQLLQEYVQLQGDPFGLPSFSPPRLPVAGLSAPAPSHAGLPVHERLRLDAAALAALPPLLDAVCRRQAELNPRAPRLLRRLEDAARQARALGAAVEALLAALGAANRGPRAEPPAATASAASATGVFPAKVLGLRVCGLYREWLSRTEGDLGQLLPGGSA"}},
  "key": {"Fischer CDF rats": {"tested_on": "Fischer CDF rats", "assay": "SU5416/hypoxia model of severe pulmonary hypertension, weekly echocardiography and hemodynamics", "type": "in vivo, rat", "procedure": "FIGS. 5A and 5B. Human Cardiotrophin-1 (hCT1) improves RV adaptation to severe Pulmonary Hypertension (PH) in Fischer rats.\nGiven that CT-1 induces phenotypic characteristics associated with beneficial RV physiologic adaptive compensation, a prediction was made by the Applicants that CT-1 would enhance RV adaptation to increased afterload in a disease setting. This supposition was tested to examine whether CT-1 protein can improve the ability of the RV to functionally adapt and limit or reduce right heart failure that is associated with pulmonary arterial hypertension (PAH), a form of PH caused by abnormalities in the lung vasculature (FIGS. 5A and 5B). PAH has a highly tractable and reproducible rodent equivalent, the […]/hypoxia rat model, which recapitulates many key aspects of the disease including progressive right heart failure in the Fischer CDF™ rat strain, a feature that is not observed in the Sprague Dawley strain in the same model of PH. Use of this PH model offers a clear advantage in providing an accurate preclinical disease setting to test the utility of CT-1, rather than simply testing co-administration of CT-1 with general […] stimulants such as PE or ISO in vivo. […] Also, right heart failure drives symptoms and prognosis in many forms of PH, including in Group 2 PH caused by increases in left ventricular filling pressures, of which heart failure with preserved ejection fraction (HFpEF) is an important example which is increasingly recognized as one of the greatest therapeutic challenges in clinical cardiology today. PH was induced by administering a single subcutaneous injection of SU5416 (20 mg/kg) to Fischer CDF™ rats followed by exposure to chronic hypoxia (8-10% O2) for 3 weeks. After these 3 weeks, rats were recovered for 24 hours in normoxia before implantation of PBS filled (control) or hCT-1 filled (6 μg/kg/hr delivery) osmotic minipumps. Control rats were exposed to normoxic conditions throughout the study and only treated with PBS (FIG. 5A). Echocardiography analyses were conducted weekly and the following parameters were measured: Right Ventricle Posterior Wall thickness (RVPW), Ratio of Right Ventricle Internal Diameter to Left Ventricle Internal (RVID/LVID), Pulmonary Artery Acceleration Time (PAAT), Fractional Area Change (FAC), and Cardiac Output (CO). At 3 weeks (prior to pump implantation), there was already a marked and significant increase in the RVID/LVID ratio, indicative of developing RV failure in this model of severe PH. In PH animals receiving saline, there was a progressive increase in this ratio over the subsequent 3 weeks, associated with other evidence of progressive RV failure, such as worsening contractile function (Fractional Area Shortening) and reductions in cardiac output."}, "P19 cells": {"tested_on": "P19 cells", "assay": "P19 cardiac differentiation (cTnT immunofluorescence, beating clusters, immunoblot)", "type": "cell-based, mouse", "procedure": "FIG. 9A Schematic for cardiac differentiation of pluripotent P19 cells. FIG. 9B Immunofluorescence results for the cardiac-specific marker Troponin T (cTnT) in P19 cardiac cells at day 7 of differentiation in the presence of varying doses of hCT1 ranging from 0-500 ng/mL (0-25 nM). Quantification of expression of cTnT is shown on the graph. FIG. 9C Quantification of beating clusters in P19 cardiac cells at day 13-15 of differentiation in the presence of varying doses of hCT1. FIG. 9D Immunoblot for the cardiac markers cTnT and GATA4 in whole cell lysates from a P19 cardiac differentiation timecourse in the presence and absence of hCT1.\nProtection during conditions of cardiac pathologies can be conferred not only by the activation of pro-survival/pro-angiogenic signaling pathways but also by inducing the differentiation of cardiogenic progenitor cells. […] To test the effect of CT1 on cardiomyocyte differentiation, undifferentiated cells were induced to undergo cardiac differentiation with 0.8% DMSO and aggregation. At day 0, P19 cells are plated onto non-adherent bacterial petri dishes in the presence of MEMα growth media with 0.8% DMSO (control) or in the presence of different doses of hCT1-containing MEMα media ranging from 0.5 nM (10 ng/mL) to 25 nM (500 ng/mL) with 0.8% DMSO. P19 cells are then allowed to aggregate for 4 days. Finally, aggregates are then transferred onto adherent tissue culture dishes in the same media (this time in the absence of DMSO) to allow for subsequent cardiac differentiation (FIG. 9A, adapted from Skerjanc et al. 1999; Trends in Cardiovascular Medicine, volume 9, pages 139-143). The cardiac specific marker Troponin T (cTnT) was used (by immunofluorescence) to identify differentiated cells.\nDifferentiation was also followed up to day 15 and the number of visually beating clusters was used to assess cardiac differentiation. […]"}, "[1]": {"conditions": "hCT-1 6 μg/kg/hr minipump from week 3"}, "[2]": {"conditions": "hCT-1 6 μg/kg/hr minipump from week 3, over 3 weeks"}},
  "data": [
    {"molecule": "B1", "values": [
      {"measurement": "RV afterload (right ventricular systolic pressure, RVSP)", "setting": "Fischer CDF rats; [1]", "value": "without any alteration in the RV afterload"},
      {"measurement": "right atrial pressure (RAP)", "setting": "Fischer CDF rats; [1]", "value": "significant decrease in right atrial pressure"},
      {"measurement": "RVID/LVID ratio", "setting": "Fischer CDF rats; [2]", "value": "progressive improvement in the RVID/LVID ratio"},
      {"measurement": "cardiac output", "setting": "Fischer CDF rats; [2]", "value": "improvements"},
      {"measurement": "contractile function", "setting": "Fischer CDF rats; [2]", "value": "improvements in contractile function"},
      {"measurement": "GATA4 and cTnT expression (immunoblot)", "setting": "P19 cells; 10 ng/mL (0.5 nM) hCT1, days 5 and 7", "value": "significantly inhibited GATA4 and cTnT expression"},
      {"measurement": "differentiation of cardiac cells (cTnT+/DAPI+)", "setting": "P19 cells; day 7, any dose 0.5 nM to 25 nM", "value": "significantly inhibited the differentiation of cardiac cells"},
      {"measurement": "number of beating clusters", "setting": "P19 cells; days 13, 14, and 15", "value": "no beating clusters were detected"}
    ]}
  ]
}
